In publication PMC12740422 one finds stoichiometry N data, which are given here for one substance.

As usually defined, the stoichiometry N is a count of units in the complex or per binding partner.

Assay [1] has as its target AcrIE9 (Pseudomonas aeruginosa). Description: SEC; analytical SEC of the pooled dimeric species of AcrIE9 alone, Superdex 200 increase 10/300 GL; 150 mM NaCl, 2 mM DTT, 5% glycerol, 20 mM HEPES pH 7.0.
Assay [2] has the same target. Description: SEC; preparative SEC of AcrIE9 during purification, HiLoad 26/600 Superdex 75 pg; 300 mM NaCl, 5% glycerol, 2 mM DTT, 20 mM HEPES pH 7.0. In general terms: SEC sorts molecules by how far they enter the pores of the column.

Take AcrIE9 (natural protein): the stoichiometry N in assay [1] and in assay [2] was 2 throughout.
